Entries after “also recorded” stand apart in the source; their conditions may differ. Peptide text beside a SMILES is read from it.
What was measured:
human MrgX2 = target: T1, human MrgX2 (Homo sapiens, UniProt Q96LB1); experiment: Fluo8 assay, intracellular Calcium release in CHEM1-MrgX2 cells; format: cell-based
T1 construct: The used cell line is overexpressing MrgX2 in CHEM1 by recombinant expression; host or cells: CHEM1 (adherent rat cell line)
T1 sequence (Q96LB1 1-330): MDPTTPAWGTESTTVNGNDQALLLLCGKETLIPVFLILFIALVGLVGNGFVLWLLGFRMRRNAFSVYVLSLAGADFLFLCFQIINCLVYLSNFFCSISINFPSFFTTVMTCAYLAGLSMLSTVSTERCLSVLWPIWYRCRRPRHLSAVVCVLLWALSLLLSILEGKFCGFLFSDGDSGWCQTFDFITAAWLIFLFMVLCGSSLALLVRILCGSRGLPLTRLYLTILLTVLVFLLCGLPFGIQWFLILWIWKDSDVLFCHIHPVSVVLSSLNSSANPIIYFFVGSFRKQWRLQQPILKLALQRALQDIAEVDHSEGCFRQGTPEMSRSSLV
Protocol: (§1) The Fluo8 assay is a cell based assay format for the determination of intracellular Calcium release. Cell were seeded on microtiter plates and incubated under standard cell culture conditions. After 24 h the medium was removed and the cells were washed with PBS. The cells were incubated with loading buffer (40 ml PBS with 2 mM Calcium +800 μl brilliant black (2%) +732 μl pobenecid (0.5 M) in 1N NaOH +400 μl Pluronic (10%) in water +152 μl Fluo8 (5.7 μg/ml) in water) for 30 minutes.

CHEM1 cells = experiment: Fluo8 assay, Calcium release in CHEM1 (control) cells without MrgX2 overexpression; format: cell-based, rat; conditions: control cell line, same experimental conditions, result in words
Protocol: as §1, with “minutes. For fluorescence readout and compound testing a FLIPR tetra system was used according to the manufactures protocol (Molecular Devices, Calif. 94089-1136, USA).” for “minutes.”
The used cell lines CHEM1 and CHEM1-MrgX2 are adherent rat cell lines (Millipore, Billerica, Mass. 01821, USA) with were cultures under standard cell culture conditions.

human MrgX2 (human) = human MrgX2 (human) (UniProt Q96LB1); experiment: cell-based or functional assay
CXCR4 = target: T2, CXCR4 (Homo sapiens, UniProt P61073); experiment: CXCR4 activity assay (CRE-luciferase reporter); format: cell-based; conditions: result in words
T2 construct: expressed in transfected cells
T2 sequence (P61073 whole entry, species assumed): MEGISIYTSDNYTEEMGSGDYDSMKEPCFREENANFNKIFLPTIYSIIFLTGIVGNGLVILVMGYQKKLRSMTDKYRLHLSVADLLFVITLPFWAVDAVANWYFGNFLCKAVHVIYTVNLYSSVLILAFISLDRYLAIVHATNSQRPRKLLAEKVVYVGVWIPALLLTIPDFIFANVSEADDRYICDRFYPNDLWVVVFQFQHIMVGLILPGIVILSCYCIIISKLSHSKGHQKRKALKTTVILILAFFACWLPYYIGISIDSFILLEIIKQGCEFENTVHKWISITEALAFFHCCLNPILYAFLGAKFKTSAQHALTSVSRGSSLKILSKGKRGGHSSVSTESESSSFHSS
From the text: The CXCR4 receptor is a chemokine receptor and belongs to the family of G protein coupled receptors (GPCRs). Its only known endogenous ligand is stromal cell-derived factor 1 (SDF-1a). CXCR4 is a Gi coupled receptor. Its activation leads to a decrease of intracellular cAMP, which could be monitored by recombinant cAMP-responsive element (CRE) regulated luciferase expression. For the characterization of modulators of CXCR4 activity, stable cell lines expressing recombinant CXCR4 and a CRE-luciferase reporter vector were established. The cells were incubated with forskolin at a concentration of 0.5 μM, SDF-1a (at 20 nM) and test compounds and incubated for 4 h under standard cell culture conditions. Luciferase substrate was added and the luminescence was measured for 60 seconds.

CC(C)C[C@H](NC(=O)[C@H](C)NC(=O)[C@H](Cc1c[nH]c2ccccc12)NC(=O)[C@H](CCCCN)NC(=O)[C@H](CC(N)=O)NC(=O)[C@H](Cc1c[nH]c2ccccc12)NC(=O)[C@H](CCCCN)NC(=O)[C@H](CCCCN)NC(=O)[C@H](CCCNC(=N)N)NC(=O)[C@H](Cc1ccccc1)NC(=O)[C@H](CCC(=O)O)NC(=O)[C@H](CO)NC(=O)[C@H](C)NC(=O)[C@@H](NC(=O)[C@H](CC(=O)O)NC(=O)[C@H](CC(C)C)NC(=O)[C@H](CCCNC(=N)N)NC(=O)[C@H](C)N)C(C)C)C(=O)N[C@@H](CO)C(=O)N[C@@H](CCCNC(=N)N)C(N)=O [PAMP, reference compound] (H-ARLDVASEFRKKWNKWALSR-NH2)
Calcium release / activity on MrgX2 (CHEM1-MrgX2) (human MrgX2; Fluo8 assay, result in words): dose dependent Calcium release
Calcium release on CHEM1 without MrgX2 (CHEM1 cells): not in CHEM1

NPY: peptide analyzed to characterize the specificity of CXCL14 to MrgX2 activation [reference compound]
Calcium release / activity on MrgX2 (CHEM1-MrgX2) (human MrgX2; Fluo8 assay, result in words): Neither NPY or angiotension II nor galanin show a dose dependent Calcium release
Calcium release on CHEM1 without MrgX2 (CHEM1 cells): Neither NPY or angiotension II nor galanin show a dose dependent Calcium release

PAMP (from UniProt P35318 22-185) (peptide)
EC50 of calcium release (Fluo8 assay) on CHEM1-MrgX2 cells (human MrgX2 (human)): 490 nM

angiotensin II (DRVYIHPF) [reference compound]
Calcium release / activity on MrgX2 (CHEM1-MrgX2) (human MrgX2; Fluo8 assay, result in words): Neither NPY or angiotension II nor galanin show a dose dependent Calcium release
Calcium release on CHEM1 without MrgX2 (CHEM1 cells): Neither NPY or angiotension II nor galanin show a dose dependent Calcium release

human CXCL14 (from UniProt O95715 35-111) (ligand)
EC50 of intracellular calcium release (Fluo8 assay) on CHEM1-MrgX2 cells (human MrgX2 (human)): 570 nM

B1: Chemokine (C-X-C motif) ligand 14 (protein, listed as Homo sapiens)
chain: SKCKCSRKGPKIRYSDVKKLEMKPKYPHCEEKMVIITTKSVSRYRGQEHCLHPKLQSTKRFIKWYNAWNEKRRVYEE
notes: small cytokine belonging to the CXC chemokine family
EC50 (human MrgX2; Calcium release, Fluo8 assay, CHEM1 overexpressing MrgX2): 570 nM
Calcium release / activity on MrgX2 (CHEM1-MrgX2) (human MrgX2; Fluo8 assay, result in words): activated by CXCL14 in a dose dependent matter; also recorded: specific agonist
Calcium release on CHEM1 without MrgX2 (CHEM1 cells): no significant calcium release
activity on G-protein coupled receptor CXCR4 (CXCR4): antagonist

B2: Mouse CXCL14: mouse CXCL14, amino acid sequence in FIG. 19; differs from human by two amino acid residues (protein)
chain: SKCKCSRKGPKIRYSDVKKLEMKPKYPHCEEKMVIVTTKSMSRYRGQEHCLHPKLQSTKRFIKWYNAWNEKRRVYEE
EC50 on CHEM1-MrgX2 compared with human CXCL14 (human MrgX2; Calcium release, result in words): comparable EC50
Calcium release / activity on MrgX2 (CHEM1-MrgX2) (human MrgX2; Fluo8 assay, result in words): dose dependent Calcium release
Calcium release on CHEM1 without MrgX2 (CHEM1 cells): not on CHEM1 without MrgX2

Source: patent US20160096874A1, “MRG RECEPTOR MODULATORS” (BAYER PHARMA AKTIENGESELLSCHAFT, priority 2013, published 2016)
